Test results from the supplement of paper PMC10567573.
± gives the standard deviation.

Assay: protein stability index of a GFP-peptide fusion (GPS, HEK-293T) (PSI 1-6); higher = more stable
Details: c terminus: a fixed tail appended
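Note: 24-mer peptide tiles fused after GFP, lentivirally expressed, FACS-sorted into six equal bins by GFP/DsRed ratio, decoded by Illumina sequencing, PSI is the read-weighted mean bin number.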

| Sequence | protein stability index (treatment: DMSO) | protein stability index (treatment: MLN4924 1 uM, 8 h) |
| --- | --- | --- |
| GYRTSAVASGLQFDVETRHVFIGD [WDFY2] | 2.86 ± 0.31 | 3.15 ± 0.36 |
| GPQSRELTLKVLRSSSCGDTELLG [C2CD2L] | 3.47 ± 0.28 | 3.59 ± 0.2 |
| LGHSPVLRNITNSQAPDGRRKSEA [CDC25B] | 3.77 ± 0.4 | 4.22 ± 0.48 |
| FLQRCLESPFSRKLDLWSFLDIPR [NET1] | 2.45 ± 0.47 | 2.1 ± 0.18 |
| VVAMARKLQDVFEMRFAKMPDEPV [BRD3] | 2.49 ± 0.29 | 2.64 ± 0.35 |
| ARCTAGTLHNLSHHREGLLAIFKS [CTNNB1] | 2.48 ± 0.19 | 2.45 ± 0.19 |
| TMSRSLDGASVNENHEIYMKDSMS [EPB41L3] | 5 ± 0.17 | 4.72 ± 0.43 |
| DALISVSYTIITPLFNPMIYSLRN [OR10K2] | 4.18 ± 0.26 | 3.35 ± 0.75 |
| NLLQDSSTSDSDLTCDSSTSSSDD [C18orf25] | 5.53 ± 0.3 | 5.61 ± 0.16 |
| KIFNDFKDRMKSDHKRETERVVRE [ZMYND11] | 4.12 ± 0.35 | 4.13 ± 0.081 |
| AYEYEREGLYEQAFQLLRRFVQAE [TRADD] | 2.27 ± 0.31 | 2.48 ± 0.26 |
| CLHHICTNYNNVCRKFPRDMKAMS [RHOBTB2] | 2.26 ± 0.18 | 2.42 ± 0.067 |
| IYSTKLYRFFKYIENRDVAKSVLK [BTBD10] | 3.1 ± 0.97 | 2.37 ± 0.61 |
| TLPPASRFIIIFEQIRFVMKAHSF [SOAT1] | 2.31 ± 0.48 | 2.57 ± 0.74 |
| TASFRTSKYLLEEWFQNCYARYHQ [TEKT4] | 1.89 ± 0.21 | 2.22 ± 0.24 |
| YFVSESFEDAKEKMREFTKTIKRP [TPH1] | 3.15 ± 0.19 | 3.41 ± 0.14 |
| GFVFGTTLIMLLSLAAFSVISVVS [RTN3] | 3.2 ± 0.33 | 2.61 ± 0.58 |
| QNLLKELQDLALQGAKERAHQQKK [CHGA] | 4.75 ± 0.23 | 4.52 ± 0.14 |
| YRERRDSDTYRCEERSPSFGEDYY [CLK3] | 4.37 ± 0.2 | 4.29 ± 0.21 |
| RAAYQQVIQPALPGQPLPGASVRG [TRAF3IP2] | 4.36 ± 0.35 | 4.18 ± 0.32 |
| RGADDAMESSKPGPVQVVLVQKDQ [ATL3] | 5.09 ± 0.3 | 4.95 ± 0.62 |
| TENEEQTQLTQNAVSCPYLPSNLL [KCNA4] | 4.49 ± 0.27 | 4.63 ± 0.12 |
| TNVKFLAITTDCLQILAYGNQESK [CTNNB1] | 2 ± 0.2 | 2.17 ± 0.16 |

| Sequence | protein stability index (treatment: DMSO) | protein stability index (treatment: MLN4924 1 uM, 8 h) |
| --- | --- | --- |
| KTQICHTLAVTCQLPIDRGGGEGK [RAD51] | 3.81 ± 0.17 | 3.95 ± 0.42 |
| GQVAEDRFPESHLPIQTPGAFLRT [TLE6] | 3.53 ± 0.48 | 3.99 ± 0.38 |
| LPEELRRLSGLSSVGHNWRKRMGT [C22orf15] | 2.99 ± 0.18 | 3.07 ± 0.22 |
| NESRYMIYEFWENSSVWNSHLQTN [NECAB1] | 2.26 ± 0.26 | 2.24 ± 0.23 |
| NYCSAYESFYESTSPECASPQFEG [NEUROD6] | 3.54 ± 0.22 | 3.67 ± 0.16 |
| QPKKLHLCPLCGKNFSNNSNLIRH [ZNF263] | 3.02 ± 0.39 | 3.37 ± 0.64 |
| ELCVKLMFLHPVDYGRKAEELLWR [SMG5] | 2.41 ± 0.7 | 2.33 ± 0.89 |
| WDPNTGFDLNNLDPELKNLFDMCG [WASL] | 3.05 ± 0.36 | 3.1 ± 0.37 |
| HHAALNGHVEMVNLLLAKGANINA [ANKRD44] | 2.51 ± 0.4 | 2.89 ± 0.2 |
| PSEKKVAIIRTPPKSPATPKQLRL [MAP2] | 4.2 ± 0.15 | 4.28 ± 0.15 |
| KLSGFMSKLVPAIQNAHKNSTGSG [TPRG1] | 2.72 ± 0.2 | 3.03 ± 0.23 |
| SSDMMDSSSFSNLDLSEEDSDDPS [VDR] | 5.66 ± 0.25 | 5.63 ± 0.26 |
| VAPLADGKVAVGQDDLTVVLNEEG [VPS39] | 5.46 ± 0.18 | 5.59 ± 0.17 |
| EEVAKAVLEQEETAAASRERQEEQ [EPB41L3] | 5.71 ± 0.078 | 5.63 ± 0.19 |
| RAPLHSVGYTALVGSDAESWGWDL [SPSB4] | 2.81 ± 0.28 | 3.13 ± 0.17 |
| CGPQWEMSEWSECTAKCGERSVVT [ADAMTSL2] | 2.92 ± 0.42 | 3 ± 0.52 |
| IIKKVAEVALDKGCSQFRLAVLDW [SAT2] | 2.77 ± 0.4 | 2.82 ± 0.6 |
| LQRWCRAKHMGLEPPPEVWQVLKT [POLD4] | 2.28 ± 0.056 | 2.56 ± 0.14 |
| DVQSMPKTGILILILSIIFIEGYC [MAGEA10] | 2.86 ± 0.97 | 2.88 ± 1.2 |
| YRQHCTLELGSYIKDLSVVHSDLS [CTDNEP1] | 2.4 ± 0.41 | 2.34 ± 0.25 |
| GSGQNEESPRKRKKATEAIDSLRK [FBXO28] | 5.11 ± 0.2 | 5.17 ± 0.2 |
| SNHVDDFTTFRGTELSFLVTTHQP [EDNRA] | 2.61 ± 0.4 | 2.8 ± 0.4 |
